Experimental data from the nanobody polyreactivity screen of Harvey et al. (2022).

Assay: yeast display, Sf9 membrane polyspecificity reagent, FACS + sequencing; frameworks hold sequencing errors
Method in brief: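 Nanobodies from a synthetic yeast display library (Saccharomyces cerevisiae BJ5465), induced 36–48 hours with galactose, were stained 1 hour at 4 °C with 10% biotinylated, detergent-solubilized Sf9 membrane reagent, enriched on streptavidin microbeads, then FACS-sorted. Anti-HA (expression) and streptavidin (reagent binding) fluorescence set low and high (top ~1%) gates. Polyreactivity labels come from the gate of origin. Genes were colony-PCR amplified, MiSeq 2 × 250 sequenced and filtered by CDR length.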

| Sequence | polyreactivity (PSR sort gate) |
| --- | --- |
| QVHLVESGGGLVQAGGSLRLSSAASGRIFDRYAMGWYRQAPGKERELVAAITSRADRTYYADSLKGRFTISRDNAKNTVYLQMNSLKPEDTAVYYCNTDKKYRHRYGGILDYWGQGTEVTVSS | high polyreactivity |
| QVHLVESGGGLVQAGGSLRLSSAASGRIFYNYTMRWYRQAPGKERELVAAITRSGSSTYADSVKGRFTISRDNGKNTVYLQMNSLKQEDTAVYYCAGEYIRRYDYWGQGTQETVSS | low polyreactivity |
| QVHLVESGGGLVQAGGSLRLSSAPSGSTFDAYDMGWYRQAPGKESELVAAITSGGSTNYADSVKGRFTISRDNAKNTVYLQMNSLKPEDTAVYYCAASPYRGFVSRYGYWGQGTQVTLSS | low polyreactivity |
| QVHLVESGGGLVQAGGSLRLTCAASGFTFHQYAMGWYRQAPGKERELVAAISQSGDSTYYADSVKGRFTISRDNSKNTVYLQMNSLKQEYTAVYYFNADNDGVVWSDPFDFDYWGQGTQVTVSS | low polyreactivity |
| QVHLVESGGGLVQAGGSLRLTCAASGFTYPGNAMGWYRQAPGKERELVATINWSGTSTYYADSVKGRFTISRDYAKNTVYLQMNSLKPEDTAVYYCAVDTGGPGYRFDYWGQGTQVTVSS | high polyreactivity |
| QVHLVESGGGLVQAGGSLRLTCAASGLIFYDNMGWYRQAPGKERELVAAISSSGGSTSYADSVKGRFTISRDNAKNTVYLQMTSLKPVDTAVYYCAADSYPAYLGFVGFDYWGKGTQVTVSS | low polyreactivity |
| QVHLVESGGGLVQAGGSLRLTCAASGRIFTSYVMGRSRQAPGQVRDLVAAITRSGGSTYYADSVKGRFTISRDNAKNTVYLQMNSLKPEDTAVYYCNALTRRQNGGEGGGYWGQGTHVTVSS | high polyreactivity |
| QVHLVESGGGLVQAGGSLRLTCAASGSIFLWNAMGWYRQAPGTEREVVAAITWRGGSTYYADSVKGRFTISRDNEKYTVYLQMNSLKPEDTAVYYCAADSYDWMDYWGQGTQVTVSS | low polyreactivity |
| QVHLVESGGGLVQAGGSLRLTCAASGSILAYNAMGWYRQAPGKERELVAAIRLSGGSTYYADSVKGRFTISRDNAKNTVYLQMNSLKPEDTAVYYCARRYYRYDTRKYNYWGQGTKVTVSS | high polyreactivity |
| QVHLVESGGGLVQAGGTLRLSCAATGRTIYDNAMGWYRQAPGKESELVAVISRSGSTYYADSVKGRFTISRDNAKNSVYLQMNSLKPEDNAVYYCARRGVWGVTYSRLYHWGQGTQVTVSS | high polyreactivity |
| QVHLVESGGGLVQAGRSLRLSCAASGRIFSRYAMGGSRQAPGKERELVAVISRSGADTYYADSVKGRFTISRDNAKTTVYLQMNSLKPEDSAVYSCNAYSARRPHPMGYDYWGQCTQVTVSS | high polyreactivity |
| QVHLVESGGGLVQAGVSLRLSCAASGSTFDYYAMGWYIQAPGTERELVAGITGGGSTYYADSVKGRFTISRDNAKNTVYLQMNSLKPEDTAVYYCNAGPAQRYDYWGQGTQVTVSS | low polyreactivity |
| QVHLVESGGGLVQAGVSLRLSCAASGSTFRRNAMGWYRQEPGKERELVAAISTSGGTTYYADSVKGRFTISRDNAKNTVYLEMNSLKPEDTAVYYCNADVYVWNYKYYSSGQGTQVTVSS | high polyreactivity |
| QVHLVESGGRLVKAGGSLRLSCPASGYITTKYAMGWYRQAPGKEMELVAAIRYSGTSTYYADSVKGRFTISRDNATNTVYLQMNSLKPEDTAVYYCNTRRYVRTTKYDYWGQGTQVTVSS | high polyreactivity |
| QVHLVESGGRLVQAGGSLRLSSAASGSIFVKNAMGWYRQAPGKERELVATISSGGSTYYADSVKGRFTISRDNAKNTVYLQMNSLKPEDTAVYYSNTASYVSWYVHYYYWGVGTQVTVSS | low polyreactivity |
| QVHLVESGGVLLQAGGSLRLSCAASGFIFKWNAMGWYRQAPGKERELVAAISWHGGSTNYADSVKGRFTISRDNAKNTVYLQMNSLKPEDTAVYYCAKQQSPYYPSTLDYWGQGTQVTVSS | high polyreactivity |
| QVHLVESGGWLVQAGGSLRLSCAASGRTFHVYAMGWYRQAPGKERELVAAITWSGDSTYYADSVKGRFTISRDNAKNTVYLQMNSLKPEDTAVYYCAASQFWKYDYWGQGTQVTVSS | low polyreactivity |
| QVHLVESGRGLFQAGGSLRLSCAASGSIFGYNAMGWYRQAPGKERELVAAITWRGGSTYYADSVKGRFTISRDNAKNTVYLQMNSLKPEDTAVYDCAAYVYQEYDYWGQGTQVTVSS | high polyreactivity |
| QVHLVESGRGLFQAGGSLRLSCAASGYTFGPYDMGGYRQAPGKERELVAGITLSGGITYYADSVKGRFTISRDNAKNTVYLQMNSLKPQDTAVSYCAAAFYVSYSVIYEYWGHGTQVTVSS | high polyreactivity |
| QVHLVESGVGLVQAGGSLRLRCAASGRTLYYYAMGWYRQAPGKQSELVAAINSGGSTKYADSVKGRFTISRDNAKNTVYLQMHSLKPEDTAVYFCAARGYIRGGYYWGQGTQVTVSS | high polyreactivity |
| QVHLVESRGGLLQAGGSLRLSCAASVYIFYYYAMGWYRQAPGKEREFVAAITSGDSTYADSVKGRFTISRDNAKNTVYLQMYSLKPEDTAVYYCAAESYFFSPRTREKFDSWGQGTQVTVSS | low polyreactivity |
| QVHLVESRGGLVQAGGSLSLSCAASGITFYIYAMGWYRQAHGKERELVAAFTTSGDSTYYADSVKGRFTISRDNAKNTVYLQMNSLKPEDTAVYDCAAEYWYTYSWGQGTQVTVLS | low polyreactivity |

| Sequence | polyreactivity (PSR sort gate) |
| --- | --- |
| QVHLVESVGGLVQAGGSLRLSCAASGSIFDVYTMGCYRQAPGKERELVAAINTGGGSKYYADSVKGRFTISRDNAKNTVYLQMNSLKPEDTAVYYCAASVYHYGPLYYWGQGTQVTVSS | low polyreactivity |
| QVHLVESVGGLVQAGGSLRLSSAASGIIFRSNAMGWYRQAPGKERELVAAISSRGSSTNYADSVKGRFTISRDNAKNTVYLQMNSLNPEDTAVYYCNARGSRVDQTESEYWGQGTQVTVSS | high polyreactivity |
| QVHLVESWGGLVQAGGSLRLSCAASGRTFWKYAMGWYRQAPWKDRVLVAAITASGARTYYADSVKGRFSISRDNGKNTVYLQMNSLKPEDTSVYYCNAGSVSDRQMDYWGQGTQVTVSS | low polyreactivity |
| QVHLVESWGGLVQAGGSLRLSCSASGITFDEYTIGWYRQAPGKERELVAAIDSDGSTTYADSVKVRFTISRDNAKNTVYLQMNILKPEDTEVYYCNAEHGDFCWHYLLYDYDYWGQGTQVTVSS | low polyreactivity |
| QVHLVETGGGLVQAGGSLRISCAASGFTFSRYAMVWYRQAPGKERELVAAITSRGGSTYYADSVKGRFTISRDNAKNTVYLQMNSLKPEDTAFYYCAASGRNRKDGLYEYYYWGQGTQVTVSS | high polyreactivity |
| QVHLVETVRGLLQAGGSLRISCAASGRSFKRYAMGWYRQAPGKERELVAAITRSGGSTYYADSVKGRFTISRDNAKNTVYLQMNSLKPEDTAVYYCATRSYNNELEYWGQGSQVTVSS | high polyreactivity |
| QVHLVVSGGGLVQAGGSLRLSCAASGLTIWYYAMGWYRQAPGKESEFVAAITSRGGDTYYADSVKGRFTISRDNAKNTVYLQMNSLKPEDTAVYYCAVRPRYYGTYRYYYWGQGTQVTVSS | high polyreactivity |
| QVHSVESGGGLVQAGGSLRLSCSASGIIFYSYAMGWYRQAPGKERELVAGITIVGSTIYADSVKGRFTISRDNPKTTVYLQMISLKAEATAVYYCNKADLHFIEMDYWGQATQVTVSS | low polyreactivity |
| QVHVVESGGGLVQAGVSLLLSCAASGRTFYRNAMGWYRQAPGKERELVAAISSRGGSTYYADSVKGRFTISRDNAKNTVYLQMNSLKPEDTAVYYCAANYGYGGDYDYWVQGTQVTVSS | high polyreactivity |
| QVKLEESGGGLVQAGGSLRLSCAASGSTFRAYTMGWYRQAPAKEREFVAAISRSGGSTFYADSVKGRFTISRDYAKNTVYLQMNSLKPEDNAVYYCAASYRYSASYYWGEGTQVTVSS | high polyreactivity |
| QVKLEESGGRLVQAGGTLRLRCAASGIIYRFYTIGWYRQAPGKERELVAAIRSGGRTYYADSVKGRFTISRDNAKNTVYLQINSLKPEDSAVYYCAKEPSRYSRYNYWGQGTQVTVSS | high polyreactivity |
| QVKLGESGGGLVQAGGSLRLSCAASGSILEFNAKGWYRQAPGKERELVAGITRDGGTTYADSVKGRFTISRDNAKNNVYFQMNSLKPEDNAVYYCAGTYYFSRWDLYGYWGHGTQVTVSS | low polyreactivity |
| QVKLKESVGGLVQAGGSLRLSCAASGSISATGNMGWYRQAPGEERELVAAINFGSNTYYADSVKGRFTISRDNAKNTVYLQKSGLKPEDTAVYYCAVDGWYVGPYYYWGQGTQVTVSS | high polyreactivity |
| QVKLQESGGGLVQAGGSLRLSCAASGYIFLHYYMGWYRQAPGKEREFVAGITSGTNTNYADSVKGRFTIRDNAKNTVYLQMNSLKPEDTAVCYCAVTYPYWGDYTYWGQGTQVTVSS | low polyreactivity |
| QVKLVDSGGGLVQAGGILRLSCAASGRIFSDYAMGWYRQAPGKERELVATITSGDSTNYADSVKGRFTISRDNAKNTVYLQMNSLKPEDTAVYYCNADRVYVRGRFTYDYWGQGTQVTVSS | low polyreactivity |
| QVKLVDSGGGLVQAGGSLRISCAASGRIFGRYTMGWYRQAPGKERELVAGITYSGGSTYYADSVKGRFTISRDNAKNTVYLQMNSLKPEDTAVYYCAARLSGSGGFDYWGQGTQVTVSS | high polyreactivity |
| QVKLVDSGGGLVQAGGSLRISCGASGRTFYGYDMGWYRQAPGKERELVAAINWRGVRTYYADSVKGRFTISRDNAKNTDYLEMNCLKPEDTAVYYCGVYNHWVYGNDYWGQGTQVTVSS | high polyreactivity |
| QVKLVDSGGGLVQAGGSLRLSCAASGRIAVNAMGWYRQAPGKERELVAAISVSGGSTNYADSVKGRFTISRDNAKNTVYLQMNSLKPEDTAVYYCAARAFDPILRNDYSGQGTQVTVSS | low polyreactivity |
| QVKLVDSGGGLVQAGGSLRLSCAASGRIIRINAMGWYRQAPGKERELVAAITRGGTTYADSVKGRFTISRDNAKNTVYLQMNSLKPEDTAVYYCNARTGRSPTGFRYWGQGTQVTVSS | high polyreactivity |
| QVKLVESAGGLVQARGSLRLSCAGSGITFVRNAMGWYRQAPGKERELVAAISSGGSTYYADSVKGRFTISRDNAKNTVYLQMNSLKPEDTAVYYCNAQIYGRLYRYRWHFYWGQGTQVTVSS | high polyreactivity |
| QVKLVESGAGLVHAGGSLRLSCAASGFIFFYYAMGRYRQAPGKERYLVATISANGGNTYYADSVKGRFTISRDNAKNTVYLQMNRLKPEDTAVYYCARYTWYLRDWQWYYWGDEDYWGQGTQVTVSS | high polyreactivity |
